For test [1], the target named is CD81 MBP-LEL (maltose-binding protein fused to the CD81 large extracellular loop, residues 113-201) (human) (UniProt P60033). The experiment in a line: CD81 MBP-LEL solid-phase assay, virion-incorporated E2.
Test [2] concerns the target HCV E1 glycoprotein (H77c), expressed from the pE1E2 vectors (hepatitis C virus H77c) (UniProt P27958). The experiment in a line: cell-based or functional assay.
Test [3] addresses full-length human CD81 expressed on transfected CHO-K1 cells (human) (UniProt P60033). Nature of the test: binding to CD81-transfected CHO-K1 cells, 125I-9E10 detection.

CD81 MBP-LEL (maltose-binding protein fused to the CD81 large extracellular loop, residues 113-201) (human), sequence (P60033 113-201 limits assumed): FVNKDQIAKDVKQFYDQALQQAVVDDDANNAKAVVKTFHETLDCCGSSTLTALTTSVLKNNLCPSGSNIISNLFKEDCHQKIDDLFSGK
full-length human CD81 expressed on transfected CHO-K1 cells (human), sequence (P60033 whole entry): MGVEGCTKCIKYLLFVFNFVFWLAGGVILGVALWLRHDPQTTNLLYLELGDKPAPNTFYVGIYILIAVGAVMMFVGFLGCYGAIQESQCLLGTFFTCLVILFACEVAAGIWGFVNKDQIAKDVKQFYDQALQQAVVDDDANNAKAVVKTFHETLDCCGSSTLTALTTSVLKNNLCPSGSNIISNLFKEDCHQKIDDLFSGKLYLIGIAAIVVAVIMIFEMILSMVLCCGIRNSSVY

Turning to “E2 glycoprotein expressed from pE1E2 Δ1 (HVR1 deletion, residues 387-408 replaced by GSSG) (from UniProt P27958 409-746)”, the fold increase in the overall binding curve compared to wild-type in test [1] was 4 fold.

The substance “E2 glycoprotein expressed from pE1E2 Δ3 link (igVR deletion with extended linker) (from UniProt P27958 384-571; P27958 579-746)” gave an E1E2-mediated entry of pseudotyped HIV-1 particles into Huh7 cells (luciferase) in test [2] of 8 fold.

In test [3], “E2 Δ12-myc (from UniProt P27958 384-386; P27958 409-459; P27958 486-661)” returned a percent reduction in CD81 binding compared to E2 Δ23-myc of 50%.

For the origin of these results see patent US20110014209A1.
